Results reported in PMC12945441 (Science (New York, N.Y.), 2022).

Molecular target: prefusion SARS-CoV-2 Omicron BA.1 S ectodomain trimer (SARS-CoV-2 Omicron BA.1 (B.1.1.529), strain)
Experiment: cryo-EM structure
Details: both partners purified

B1: S2X324 Fab fragment (Fab, V domains shown)
VH: QITLKESGPTLVKPTQTLTLTCTFSGFSVTTSGVGVGWIRQPPGKALEYLALIYWDDDKRYSTSLKSRLTITKDTSKNQVVLTMTNMDPVDTATYYCARHTIPSIFDYWGQGILVTVSS
VL: QPVLTQPASVSGSPGQSITISCTATSSDVGNYNYVSWYQHHPGKAPKLMIYEVSNRPSGVSNRFSGSKSGNTASLTISGLQAEDEADYYCSSYTSSSLLFGGGTKLTVL
- stoichiometry N: 3 Fabs per S trimer
